Series [1] concerns the target T1, 8-oxoguanine DNA glycosylase (OGG1) (UniProt O15527 1-345). Put plainly: capillary electrophoresis (NECEEM); 0.2 uM aptamer, 5.0 uM OGG1, n=3; CE in fused-silica capillary (75 um i.d. x 50.2 cm, 40 cm effective); borate reagents listed; 15 min incubation stated for the selection; buffer composition, pH and temperature not in the material. Particulars: protein: commercial; (library is FAM labelled).

Series [2] addresses T1, 8-oxoguanine DNA glycosylase (OGG1). In words: capillary electrophoresis (NECEEM); 0.2 uM aptamer, 5.0 uM OGG1, n=3; abstract gives range 1.71-2.64 uM for the top three candidates; CE in fused-silica capillary (75 um i.d. x 50.2 cm, 40 cm effective); borate reagents listed; 15 min incubation stated for the selection; buffer composition, pH and temperature not in the material. The settings on record: protein: commercial; (library is FAM labelled).

T1 sequence (O15527 whole entry, the tested form may be a part): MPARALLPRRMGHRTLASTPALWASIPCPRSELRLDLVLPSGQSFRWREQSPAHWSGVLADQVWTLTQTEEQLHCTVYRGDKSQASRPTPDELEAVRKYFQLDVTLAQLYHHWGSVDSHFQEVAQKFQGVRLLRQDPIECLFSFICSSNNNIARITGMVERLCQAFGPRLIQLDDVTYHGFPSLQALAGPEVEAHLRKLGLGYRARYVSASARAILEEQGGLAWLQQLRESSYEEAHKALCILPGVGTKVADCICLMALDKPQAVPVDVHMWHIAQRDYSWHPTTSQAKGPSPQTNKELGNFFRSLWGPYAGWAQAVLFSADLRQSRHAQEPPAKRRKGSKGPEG

B1: OGG1-Apt 1 (ssDNA)
DNA: AGCAGCACAGAGGTCAGATGGCCACATTAGTCTCACCACTACCTGCGTACCTACCGCCGCCCTATGCGTGCTACCGTGAA
Usually Kd stands for the constant that tells how readily two partners part at equilibrium. A high value points to lower affinity. For the molecule B1, the Kd in series [1] turned out to be 1700 ± 100 nM.

B2: OGG1-Apt 4 (ssDNA)
DNA: AGCAGCACAGAGGTCAGATGGCGAAGCGTACCGGCTACCCAGTGACAGTCGCCGTGGGTCCCTATGCGTGCTACCGTGAA
Regarding B2, in series [2], the Kd came to 2800 ± 200 nM.

B3: OGG1-Apt 2 (ssDNA)
DNA: AGCAGCACAGAGGTCAGATGTTGATGGCAGGTATTGCTAGGTCTACATGGAACTTGTTAACCTATGCGTGCTACCGTGAA
On to B3, for which the dissociation constant Kd in series [1] came to 2600 ± 200 nM.

B4: OGG1-Apt 6 (ssDNA)
DNA: AGCAGCACAGAGGTCAGATGCCGATCGTTGTTCCCGATCAAGATGGGGAATCTCAGTCGCCCTATGCGTGCTACCGTGAA
Molecule B4 yielded an equilibrium dissociation constant (Kd) in series [1] of 1800 ± 100 nM.

The values are drawn from PMC9404054, “Efficient screening for 8-oxoguanine DNA glycosylase binding aptamers via capillary electrophoresis”.
